# Measurements published in US20250002577A1 (ONCORESPONSE, published 2025).
# Numbering of substitutions follows the chain as printed. Numbers in names are those of the source.
# B1: B21H4-14 (antibody, human IgG4 S228P, kappa)
# heavy: not shown
# light: DVVMTQSPSTVSASVGDRVTLTCQASGNIYSFLAWYQQKPGQPPKLLIYTASNLETGVPDRFSGSGSGTDYTLTISSLQADDFATYYCLGGLYSSDVSYAFGQGTKVEIKRTVAAPSVFIFPPSDEQLKSGTASVVCLLNNFYPREAKVQWKVDNALQSGNSQESVTEQDSKDSTYSLSSTLTLSKADYEKHKVYACEVTHQGLSSPVTKSFNRGEC
# notes: humanized IgG4/kappa, VH1+VL4; transfection supernatant
# B2: B21A4 (antibody, human IgG4 S228P, kappa)
# heavy: not shown
# light: DIVMTQTPASVEAAVGGTVTINCQASGNIYSFLAWYQQKPGQPPKLLIYTASNLETGVPSRFSGSGSGTEYTLTISGVQCDDAATYYCLGGLYSSDVSYAFGGGTEVVVKRTVAAPSVFIFPPSDEQLKSGTASVVCLLNNFYPREAKVQWKVDNALQSGNSQESVTEQDSKDSTYSLSSTLTLSKADYEKHKVYACEVTHQGLSSPVTKSFNRGEC
# notes: Rabbit/human chimera, human IgG4/kappa; 3 is used here; also called B21A chimera IgG4; Clone B21A4
# B3: B21H1-23 (antibody, human IgG1, kappa)
# heavy: not shown
# light: DIVMTQSPSSVSASVGDRVTITCQASGNIYSFLAWYQQKPGKAPKLLIYTASNLETGVPSRFSGSGSGTDFTLTISSLQPEDFATYYCLGGLYSSDVSYAFGGGTKVVIKRTVAAPSVFIFPPSDEQLKSGTASVVCLLNNFYPREAKVQWKVDNALQSGNSQESVTEQDSKDSTYSLSSTLTLSKADYEKHKVYACEVTHQGLSSPVTKSFNRGEC
# notes: humanized IgG1/kappa, VH2+VL3
# B4: B21H4-13 (antibody, human IgG4 S228P, kappa)
# heavy: not shown
# light: B3 light
# notes: humanized IgG4/kappa, VH1+VL3; transfection supernatant
# B5: B21H1-22 (antibody, human IgG1, kappa)
# heavy: not shown
# light: B3 light with V3Q, V11L, A43V, F71Y, P80S, F83A
# notes: humanized IgG1/kappa, VH2+VL2
# Assays:
# [1] = target: T1, recombinant human LILRB2-His (human, UniProt Q8N423 22-461, limits assumed); experiment: MSD ELISA, coated antigen, transfection supernatant
# T1 construct: Bought protein; also called LILRB2 protein
# T1 sequence (Q8N423 22-461 limits assumed): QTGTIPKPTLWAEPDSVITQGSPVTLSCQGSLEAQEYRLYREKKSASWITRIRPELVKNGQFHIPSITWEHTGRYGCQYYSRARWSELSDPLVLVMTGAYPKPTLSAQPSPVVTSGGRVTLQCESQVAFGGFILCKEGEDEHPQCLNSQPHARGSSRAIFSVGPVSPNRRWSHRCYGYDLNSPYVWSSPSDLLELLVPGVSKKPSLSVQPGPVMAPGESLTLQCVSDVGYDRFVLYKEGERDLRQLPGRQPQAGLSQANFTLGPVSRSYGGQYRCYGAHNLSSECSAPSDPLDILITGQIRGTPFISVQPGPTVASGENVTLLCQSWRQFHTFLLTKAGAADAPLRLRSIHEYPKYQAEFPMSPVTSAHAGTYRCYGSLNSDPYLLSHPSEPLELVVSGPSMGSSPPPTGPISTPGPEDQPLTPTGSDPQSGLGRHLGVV
# Experimental: (§1) To confirm binding to human LILRB1 and human LILRB2, transfection supernatants (obtained in Example 2) were evaluated for binding by ELISA. The conditioned media from these transient transfections were assayed for human IgG concentration by AlphaLISA® immunoassay (PerkinElmer, No. AL310C) (Table 4). A plate-based MSD ELISA was performed in which human LILRB1-His or LILRB2-His was immobilized, and binding of transfection supernatants of humanized mAb variants was detected via an anti-human IgG Sulfo-tag-labeled secondary antibody. The IgG1 version of the parental rabbit/human chimera (designated B21A1) transfection served as the benchmark EC₅₀ positive control.
# (§2) Recombinant human and cynomolgus LILRB1 proteins (R&D Systems, No. 8989-T2-050; ACROBiosystems, No. CDJ-C52H3) and recombinant human and cynomolgus LILRB2 proteins (ACROBiosystems, No. LI2-H5220; No. L12-C52H3) were diluted in PBS to 4 μg/mL and added to a multi-array 384-well high-binding plates (MSD, No. L21XA4) at 10 μL/well and incubated at 4° C. overnight. The plates were washed several times with Wash Buffer (0.05% Tween® 20 in PBS), using a microplate washer and then blocked with 70 μL/well of 5% BSA in PBS for 1 hour (h) at room temperature (RT) with shaking at 700 rpm. After blocking, 20 μL/well of anti-LILRB2/LILRB1 antibodies or isotype control were added to the plates, and the plates were sealed and incubated for 2 h at RT with shaking at 700 rpm. After primary antibody binding, plates were washed five times with 70 μL/well of Wash Buffer (0.05% Tween® 20 in PBS) using a microplate washer. Secondary detection antibody (SULFO-TAG™-labeled goat anti-human IgG antibody (MSD, No. R32AJ-1)) was diluted to 4 μg/mL in assay diluent (1% BSA in PBS) and 10 μL/well was added to plates and incubated at RT protected from light for 1 h, with shaking at 700 rpm. Following incubation, plates were washed five times with Wash Buffer, using a microplate washer. After removal of the final wash, 35 μL/well of MSD Gold Read Buffer B (MSD, No. R60AM-4) was added to all wells using a Multidrop combo washer/dispenser, and plates were read using MESO Sector 600MM instrument (MSD) within 5 minutes (min) after addition of Read Buffer. Signals as counts per minute (cpm) were recorded.
# [2] = target: T2, recombinant human LILRB1-His (human, UniProt Q8NHL6 24-458); experiment: as above
# T2 construct: Bought protein; also called LILRB1 protein
# T2 sequence (Q8NHL6 24-458 limits assumed): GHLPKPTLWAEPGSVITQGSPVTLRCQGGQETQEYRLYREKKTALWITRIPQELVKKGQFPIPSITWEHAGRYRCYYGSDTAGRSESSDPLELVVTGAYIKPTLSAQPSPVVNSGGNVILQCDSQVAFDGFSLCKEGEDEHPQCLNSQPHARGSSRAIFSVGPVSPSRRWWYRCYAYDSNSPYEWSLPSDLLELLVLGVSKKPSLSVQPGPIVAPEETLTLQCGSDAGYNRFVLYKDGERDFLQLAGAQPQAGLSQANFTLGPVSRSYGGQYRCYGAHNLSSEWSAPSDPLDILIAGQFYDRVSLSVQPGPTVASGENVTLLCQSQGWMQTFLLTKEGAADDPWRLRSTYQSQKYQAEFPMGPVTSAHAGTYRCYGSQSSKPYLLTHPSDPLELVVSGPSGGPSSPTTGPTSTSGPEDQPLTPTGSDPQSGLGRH
# Experimental: as §1, §2
# [3] = target: T1, recombinant human LILRB2-His; experiment: MSD ELISA, coated antigen, purified IgG1
# Experimental: as §2, with “recorded. EC₅₀ values were calculated using GraphPad Prism based on log concentration of the primary antibodies versus cpm values.” for “recorded.”
# [4] = target: T2, recombinant human LILRB1-His; experiment: MSD ELISA, coated antigen, purified IgG1
# Experimental: as §2, with “recorded. EC₅₀ values were calculated using GraphPad Prism based on log concentration of the primary antibodies versus cpm values.” for “recorded.”
# [5] = target: T3, human LILRB2 on cells (human, UniProt Q8N423 22-597); experiment: flow cytometry, LILRB2-HEK293T cells, AF647-labelled antibody
# T3 construct: whole, on cells; also called hLILRB2; LILRB2-HEK293T
# T3 sequence (Q8N423 22-597): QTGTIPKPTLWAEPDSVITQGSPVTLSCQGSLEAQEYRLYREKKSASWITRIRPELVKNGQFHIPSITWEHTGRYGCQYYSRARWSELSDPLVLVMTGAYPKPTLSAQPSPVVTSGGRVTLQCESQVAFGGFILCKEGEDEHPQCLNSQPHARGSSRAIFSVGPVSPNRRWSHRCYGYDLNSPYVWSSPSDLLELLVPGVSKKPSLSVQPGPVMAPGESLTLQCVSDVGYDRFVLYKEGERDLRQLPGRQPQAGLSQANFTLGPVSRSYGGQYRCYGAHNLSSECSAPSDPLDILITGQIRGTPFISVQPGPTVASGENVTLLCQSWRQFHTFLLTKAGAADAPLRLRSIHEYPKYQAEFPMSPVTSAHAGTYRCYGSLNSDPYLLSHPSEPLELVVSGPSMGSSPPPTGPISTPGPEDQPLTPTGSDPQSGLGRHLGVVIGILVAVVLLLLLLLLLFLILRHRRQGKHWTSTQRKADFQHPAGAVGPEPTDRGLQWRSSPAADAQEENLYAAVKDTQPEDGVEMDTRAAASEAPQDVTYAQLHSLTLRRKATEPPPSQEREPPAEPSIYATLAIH
# Experimental: While LILRB2 expression is mostly restricted to myeloid cells, LILRB1 has a broader expression on immune cell subsets, including B cells, T cells and NK cells.
# Frozen cells were removed from storage in vapor phase liquid nitrogen and thawed by gentle swirling in a water bath at 37° C., then resuspended in DMEM media with 10% FBS. Cells were placed in a 15 mL conical tube and centrifuged at 300×g for 5 min, then supernatant was removed. Cells were resuspended in DMEM+10% FBS at a cell density of 2×10⁵ cells/mL in a T75 flask for culturing, and incubated at 37° C., 5% CO₂ for 3 days before passaging. Cells were passaged when the cell density reached 1×10⁶ cell/mL. On the day of the assay, cells were centrifuged, then supernatant was removed. Cells were resuspended in Blocking Buffer B (FACS Buffer containing 10% FBS and 0.5 mg/mL human IgG1 (Athens Research, No. 16-16-090707-1M)+0.05% NaN₃, 5% (w/v)) in a 15 mL conical tube, then incubated at 4° C. for 30 min. […] Cells were incubated with antibodies at 4° C. for 1 h. Cells were washed twice in FACS Buffer (PBS containing 2 mM EDTA+1% FBS+0.05% NaN₃) and then stained with for 10 min with Zombie Violet™ fixable viability dye (BioLegend, No. 423114) at RT, washed with FACS Buffer and resuspend in 75 μL of FACS Buffer for acquisition on a BD FACSymphony™ or BD FACSCanto™ II flow cytometer (BD Biosciences), as described in Example 6.
# [6] = target: T4, human LILRB3 on HEK293-6E cells (human, UniProt O75022 24-631); experiment: flow cytometry, HEK293-6E transfectants
# T4 construct: whole, on cells; also called hLILRB3
# T4 sequence (O75022 24-631): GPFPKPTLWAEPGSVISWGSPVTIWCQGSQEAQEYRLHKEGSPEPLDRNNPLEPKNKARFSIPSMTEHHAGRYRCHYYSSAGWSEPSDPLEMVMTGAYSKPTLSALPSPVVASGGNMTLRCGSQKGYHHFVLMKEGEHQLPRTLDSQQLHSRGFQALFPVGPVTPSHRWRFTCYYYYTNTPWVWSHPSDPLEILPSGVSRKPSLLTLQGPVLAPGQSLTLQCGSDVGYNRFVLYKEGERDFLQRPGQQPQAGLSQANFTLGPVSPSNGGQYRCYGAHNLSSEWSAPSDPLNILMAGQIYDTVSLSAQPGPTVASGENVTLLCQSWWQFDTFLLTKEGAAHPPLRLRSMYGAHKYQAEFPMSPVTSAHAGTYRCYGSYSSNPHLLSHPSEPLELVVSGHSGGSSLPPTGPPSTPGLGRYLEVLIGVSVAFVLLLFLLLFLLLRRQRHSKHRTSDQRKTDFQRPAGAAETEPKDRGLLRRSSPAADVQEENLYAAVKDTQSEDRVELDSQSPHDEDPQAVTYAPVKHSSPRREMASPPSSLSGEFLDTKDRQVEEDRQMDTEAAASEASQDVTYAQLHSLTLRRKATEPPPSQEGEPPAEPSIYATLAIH
# Experimental: (§3) To determine that the parent chimera anti LILRB2/1 antibody specifically binds to LILRB2 and LILRB1 and not to other LILRB and LILRA family members, a cross-reactivity assay was performed. Cross-reactivity was assessed by antibody binding to transiently transfected HEK293-6E cells by flow cytometry. Binding was evaluated to HEK293-6E cells transiently transfected with human LILRB-1, -2, -3, -4, and 5 plasmids (Origene, Nos. RC219949, RC217935, RC211228, RC220932, RC206516) or to cells transiently transfected with human LILRA-1, -2, -4, -5, and -6 plasmids (Origene, Nos. RC210808, RC205626, RC220452, RC212310 RC212965). […] At a concentration of 1 μg/mL, no binding of B21A1 or the humanized variants to LILRB-3, -4, or -5 was observed (Table 7). Additionally, no binding to LILRA-1, -2, -4, -5, or -6 was observed, confirming the specificity of B21A1 and its humanized variants to LILRB1 and LILRB2 (Table 8).
# [7] = target: T5, human LILRA4 on HEK293-6E cells (human, UniProt P59901 24-499); experiment: flow cytometry, HEK293-6E transfectants
# T5 construct: whole, on cells; also called hLILRA4
# T5 sequence (P59901 24-499): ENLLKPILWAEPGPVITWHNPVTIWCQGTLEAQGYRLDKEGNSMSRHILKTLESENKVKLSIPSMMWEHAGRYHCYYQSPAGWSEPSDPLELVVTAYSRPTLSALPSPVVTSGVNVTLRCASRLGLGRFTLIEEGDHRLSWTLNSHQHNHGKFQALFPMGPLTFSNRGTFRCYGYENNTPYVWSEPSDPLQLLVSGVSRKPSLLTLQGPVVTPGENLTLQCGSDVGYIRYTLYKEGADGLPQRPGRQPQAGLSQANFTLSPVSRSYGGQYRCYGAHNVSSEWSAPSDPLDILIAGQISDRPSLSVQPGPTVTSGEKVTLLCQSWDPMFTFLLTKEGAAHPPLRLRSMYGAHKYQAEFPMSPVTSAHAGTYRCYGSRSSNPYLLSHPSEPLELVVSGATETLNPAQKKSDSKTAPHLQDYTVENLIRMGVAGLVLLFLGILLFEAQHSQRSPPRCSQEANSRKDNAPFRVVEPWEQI
# Experimental: as §3
# [8] = target: T6, human LILRB5 on HEK293-6E cells (human, UniProt O75023 24-590); experiment: flow cytometry, HEK293-6E transfectants
# T6 construct: whole, on cells; also called hLILRB5
# T6 sequence (O75023 24-590): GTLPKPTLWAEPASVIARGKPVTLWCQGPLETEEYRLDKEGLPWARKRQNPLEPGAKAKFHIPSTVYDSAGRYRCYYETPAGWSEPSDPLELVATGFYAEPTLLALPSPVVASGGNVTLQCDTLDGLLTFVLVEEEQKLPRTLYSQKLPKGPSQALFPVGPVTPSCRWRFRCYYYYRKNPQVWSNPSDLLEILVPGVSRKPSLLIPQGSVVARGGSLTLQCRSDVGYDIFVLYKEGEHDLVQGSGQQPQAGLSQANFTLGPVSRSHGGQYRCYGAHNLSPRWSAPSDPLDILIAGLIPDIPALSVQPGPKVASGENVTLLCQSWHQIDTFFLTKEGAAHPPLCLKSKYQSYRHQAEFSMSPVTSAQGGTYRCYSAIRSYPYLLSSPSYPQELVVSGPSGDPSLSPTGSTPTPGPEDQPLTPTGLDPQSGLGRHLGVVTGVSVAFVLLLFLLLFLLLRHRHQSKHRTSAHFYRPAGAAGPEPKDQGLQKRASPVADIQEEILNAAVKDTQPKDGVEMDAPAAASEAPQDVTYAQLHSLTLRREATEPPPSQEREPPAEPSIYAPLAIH
# Experimental: as §3
# [9] = target: T7, human LILRA5 on HEK293-6E cells (human, UniProt A6NI73 42-299); experiment: flow cytometry, HEK293-6E transfectants
# T7 construct: whole, on cells; also called hLILRA5
# T7 sequence (A6NI73 42-299): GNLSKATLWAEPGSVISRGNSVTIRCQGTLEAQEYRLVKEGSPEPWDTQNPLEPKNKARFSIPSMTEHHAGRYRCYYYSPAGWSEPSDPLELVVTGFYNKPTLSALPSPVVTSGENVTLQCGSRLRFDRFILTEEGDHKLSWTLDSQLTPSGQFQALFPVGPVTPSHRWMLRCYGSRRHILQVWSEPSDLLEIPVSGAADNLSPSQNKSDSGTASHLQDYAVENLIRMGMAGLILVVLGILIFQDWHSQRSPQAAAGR
# Experimental: as §3
# [10] = target: T8, human LILRB4 on HEK293-6E cells (human, UniProt Q8NHJ6 22-448); experiment: flow cytometry, HEK293-6E transfectants
# T8 construct: whole, on cells; also called hLILRB4
# Experimental: as §3
# [11] = target: T9, human LILRB1 on cells (human, UniProt Q8NHL6 24-650); experiment: flow cytometry, HEK293-6E transfectants
# T9 construct: whole, on cells; also called hLILRB1; LILRB1-expressing 721.221 cells
# Experimental: as §3
# [12] = target: T3, human LILRB2 on cells; experiment: flow cytometry, HEK293-6E transfectants
# Experimental: as §3
# [13] = target: T10, human LILRA1 on HEK293-6E cells (human, UniProt O75019 17-489); experiment: flow cytometry, HEK293-6E transfectants
# T10 construct: whole, on cells; also called hLILRA1
# T10 sequence (O75019 17-489): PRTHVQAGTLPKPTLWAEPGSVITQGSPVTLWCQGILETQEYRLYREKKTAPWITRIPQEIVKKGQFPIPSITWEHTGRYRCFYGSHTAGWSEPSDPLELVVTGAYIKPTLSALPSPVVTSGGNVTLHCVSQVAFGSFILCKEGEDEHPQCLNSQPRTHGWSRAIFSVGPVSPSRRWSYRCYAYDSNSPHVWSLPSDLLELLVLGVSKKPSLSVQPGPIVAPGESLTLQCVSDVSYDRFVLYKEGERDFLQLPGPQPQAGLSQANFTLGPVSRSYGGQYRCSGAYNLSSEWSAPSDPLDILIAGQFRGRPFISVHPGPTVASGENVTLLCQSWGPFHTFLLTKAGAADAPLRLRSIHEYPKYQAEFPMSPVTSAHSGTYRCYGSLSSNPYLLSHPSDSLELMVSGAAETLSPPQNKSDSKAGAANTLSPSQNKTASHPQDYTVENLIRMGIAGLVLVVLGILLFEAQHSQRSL
# Experimental: as §3
# [14] = target: T11, human LILRA2 on HEK293-6E cells (human, UniProt Q8N149 24-483); experiment: flow cytometry, HEK293-6E transfectants
# T11 construct: whole, on cells; also called hLILRA2
# T11 sequence (Q8N149 24-483): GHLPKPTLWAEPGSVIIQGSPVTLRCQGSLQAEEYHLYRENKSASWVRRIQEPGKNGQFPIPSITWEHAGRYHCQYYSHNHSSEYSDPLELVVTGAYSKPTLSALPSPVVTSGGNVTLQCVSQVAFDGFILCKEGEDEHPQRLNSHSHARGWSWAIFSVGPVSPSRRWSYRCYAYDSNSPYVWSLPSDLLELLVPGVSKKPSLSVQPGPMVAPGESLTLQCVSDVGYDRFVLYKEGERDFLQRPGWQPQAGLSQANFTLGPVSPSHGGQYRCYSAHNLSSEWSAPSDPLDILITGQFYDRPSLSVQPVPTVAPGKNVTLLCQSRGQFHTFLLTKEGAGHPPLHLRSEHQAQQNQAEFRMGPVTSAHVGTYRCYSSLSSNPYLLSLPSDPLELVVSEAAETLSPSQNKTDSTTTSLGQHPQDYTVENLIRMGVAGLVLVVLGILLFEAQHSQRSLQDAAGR
# Experimental: as §3
# [15] = target: T12, human LILRA6 on HEK293-6E cells (human, UniProt Q6PI73 24-481); experiment: flow cytometry, HEK293-6E transfectants
# T12 construct: whole, on cells; also called hLILRA6
# T12 sequence (Q6PI73 24-481): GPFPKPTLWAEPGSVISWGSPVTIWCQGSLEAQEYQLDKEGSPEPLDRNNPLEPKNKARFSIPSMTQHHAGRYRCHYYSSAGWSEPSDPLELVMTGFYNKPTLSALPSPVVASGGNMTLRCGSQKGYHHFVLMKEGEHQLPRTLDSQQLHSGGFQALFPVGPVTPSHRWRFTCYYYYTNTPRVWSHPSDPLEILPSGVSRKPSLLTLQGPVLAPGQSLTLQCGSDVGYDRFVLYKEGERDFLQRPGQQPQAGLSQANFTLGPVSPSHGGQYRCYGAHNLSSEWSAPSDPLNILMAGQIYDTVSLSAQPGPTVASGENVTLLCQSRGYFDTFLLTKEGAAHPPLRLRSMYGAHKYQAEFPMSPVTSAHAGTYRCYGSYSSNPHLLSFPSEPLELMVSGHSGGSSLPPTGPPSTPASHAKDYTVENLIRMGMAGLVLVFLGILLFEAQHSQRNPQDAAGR
# Experimental: as §3
Binder,EC50 [1] [ng/mL],EC50 [2] [ng/mL],EC50 [3] [ng/mL],EC50 [4] [ng/mL],EC50 [5] [ng/mL],MFI [6] [MFI],binding result [6],MFI [7] [MFI],binding result [7],MFI [8] [MFI],binding result [8],MFI [9] [MFI],binding result [9],MFI [10] [MFI],binding result [10],MFI [11] [MFI],MFI [12] [MFI],MFI [13] [MFI],binding result [13],MFI [14] [MFI],further results
B1,1.46,1.3,,,,,,,,,,,,,,,,,,,
B2,2.63,3.73,,,,,,,,,,,,,,,,,,,
B3,,,30.7,8.64,1.63,96.2,no binding (tested: 1 µg/mL),136,no binding (tested: 1 µg/mL),92,no binding (tested: 1 µg/mL),75.3,no binding (tested: 1 µg/mL),30.1,no binding (tested: 1 µg/mL),1060,5430,210,no binding (tested: 1 µg/mL),27.5,binding result [14]: no binding (tested: 1 µg/mL); MFI [15]: 140 MFI; binding result [15]: no binding (tested: 1 µg/mL)
B4,1.01,1.5,,,,,,,,,,,,,,,,,,,
B5,,,25.3,8.18,1.07,90.1,no binding (tested: 1 µg/mL),132,no binding (tested: 1 µg/mL),91.4,no binding (tested: 1 µg/mL),76.7,no binding (tested: 1 µg/mL),29.9,no binding (tested: 1 µg/mL),914,5590,295,no binding (tested: 1 µg/mL),27.6,binding result [14]: no binding (tested: 1 µg/mL); MFI [15]: 140 MFI; binding result [15]: no binding (tested: 1 µg/mL)
